# Source: the supplement of paper PMC10567573
# B1: FAM50A (parent)
# chain: KKREKQREQMEQMKQRIAEENIMK
# Variants of: B1
# Test: protein stability index of a GFP-peptide fusion (GPS, HEK-293T) (PSI 1-6); higher = more stable
# Conditions: c terminus: a fixed tail appended
# 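Note: lentivirally expressed fusions sorted by FACS into six bins by GFP to DsRed ratio, PSI derived from sequencing read proportions per bin multiplied by bin number.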
row,Variant,protein stability index
1,KKREKQRYQMEQMKQRIAEENIMK,4.23
2,KKREKQRWQMEQMKQRIAEENIMK,3.68
3,KKREKQRTQMEQMKQRIAEENIMK,4.31
4,KKREKQRCQMEQMKQRIAEENIMK,4.15
5,KKREKQRQQMEQMKQRIAEENIMK,4.82
6,KKREKQRKQMEQMKQRIAEENIMK,4.48
7,KKREKQRSQMEQMKQRIAEENIMK,4.41
8,KKREKQRNQMEQMKQRIAEENIMK,4.44
9,KKREKQRMQMEQMKQRIAEENIMK,4.58
10,KKREKQRFQMEQMKQRIAEENIMK,4.29
11,KKREKQRAQMEQMKQRIAEENIMK,4.96
12,KKREKQRGQMEQMKQRIAEENIMK,4.85
13,KKREKQRDQMEQMKQRIAEENIMK,4.63
14,KKREKQRRQMEQMKQRIAEENIMK,4.71
15,KKREKQRHQMEQMKQRIAEENIMK,3.74
16,KKREKQRVQMEQMKQRIAEENIMK,4.37
17,KKREKQRPQMEQMKQRIAEENIMK,4.89
18,KKREKQRIQMEQMKQRIAEENIMK,4.51
19,KKREKQRLQMEQMKQRIAEENIMK,4.57
20,KKREKQRERMEQMKQRIAEENIMK,4.56
21,KKREKQREYMEQMKQRIAEENIMK,4.51
22,KKREKQRELMEQMKQRIAEENIMK,4.92
23,KKREKQREEMEQMKQRIAEENIMK,5.18
24,KKREKQREIMEQMKQRIAEENIMK,4.01

row,Variant,protein stability index
1,KKREKQREKMEQMKQRIAEENIMK,4.93
2,KKREKQRETMEQMKQRIAEENIMK,4.72
3,KKREKQREVMEQMKQRIAEENIMK,4.67
4,KKREKQREPMEQMKQRIAEENIMK,4.89
5,KKREKQREHMEQMKQRIAEENIMK,4.68
6,KKREKQREAMEQMKQRIAEENIMK,4.86
7,KKREKQREDMEQMKQRIAEENIMK,4.96
8,KKREKQRESMEQMKQRIAEENIMK,4.74
9,KKREKQREFMEQMKQRIAEENIMK,4.16
10,KKREKQREGMEQMKQRIAEENIMK,4.75
11,KKREKQRENMEQMKQRIAEENIMK,4.8
12,KKREKQREWMEQMKQRIAEENIMK,4.13
13,KKREKQREMMEQMKQRIAEENIMK,4.4
14,KKREKQRECMEQMKQRIAEENIMK,4.73
15,KKREKYREQMEQMKQRIAEENIMK,4.14
16,KKREKHREQMEQMKQRIAEENIMK,4.7
17,KKREKLREQMEQMKQRIAEENIMK,4.13
18,KKREKWREQMEQMKQRIAEENIMK,3.96
19,KKREKGREQMEQMKQRIAEENIMK,4.62
20,KKREKFREQMEQMKQRIAEENIMK,4.13
21,KKREKIREQMEQMKQRIAEENIMK,4.67
22,KKREKMREQMEQMKQRIAEENIMK,4.62
23,KKREKTREQMEQMKQRIAEENIMK,4.9
24,KKREKVREQMEQMKQRIAEENIMK,4.49

row,Variant,protein stability index
1,KKREKKREQMEQMKQRIAEENIMK,4.67
2,KKREKSREQMEQMKQRIAEENIMK,4.96
3,KKREKNREQMEQMKQRIAEENIMK,5.3
4,KKREKPREQMEQMKQRIAEENIMK,4.57
5,KKREKQREQMGQMKQRIAEENIMK,4.48
6,KKREKQREQMCQMKQRIAEENIMK,4.13
7,KKREKQREQMDQMKQRIAEENIMK,5.03
8,KKREKQREQMFQMKQRIAEENIMK,4.15
9,KKREKQREQSEQMKQRIAEENIMK,4.89
10,KKREKQREQFEQMKQRIAEENIMK,4.15
11,KKREKQREQTEQMKQRIAEENIMK,4.69
12,KKREKQREQVEQMKQRIAEENIMK,4.37
13,KKREKQREQHEQMKQRIAEENIMK,5.16
14,KKREKQREQGEQMKQRIAEENIMK,5.19
15,KKREKQREQNEQMKQRIAEENIMK,4.9
16,KKREKQREQLEQMKQRIAEENIMK,4.07
17,KKREKQREQAEQMKQRIAEENIMK,4.92
18,KKREKQREQIEQMKQRIAEENIMK,4.7
19,KKREKQREQPEQMKQRIAEENIMK,5.15
20,KKREKQREQCEQMKQRIAEENIMK,4.86
21,KKREKQREQQEQMKQRIAEENIMK,4.86
22,KKREKQREQDEQMKQRIAEENIMK,4.81
23,KKREKQREQKEQMKQRIAEENIMK,4.71
24,KKREKQREQREQMKQRIAEENIMK,5.14

row,Variant,protein stability index
1,KKREKQREQYEQMKQRIAEENIMK,4.61
2,KKREKQREQEEQMKQRIAEENIMK,5.14
3,KKREKQREQWEQMKQRIAEENIMK,4.7
4,KKREKQQEQMEQMKQRIAEENIMK,5.25
5,KKREKQAEQMEQMKQRIAEENIMK,4.91
6,KKREKQHEQMEQMKQRIAEENIMK,5.08
7,KKREKQIEQMEQMKQRIAEENIMK,4.96
8,KKREKQEEQMEQMKQRIAEENIMK,5.81
9,KKREKQLEQMEQMKQRIAEENIMK,4.95
10,KKREKQCEQMEQMKQRIAEENIMK,4.71
11,KKREKQSEQMEQMKQRIAEENIMK,5.51
12,KKREKQGEQMEQMKQRIAEENIMK,5.21
13,KKREKQDEQMEQMKQRIAEENIMK,5.39
14,KKREKQPEQMEQMKQRIAEENIMK,4.7
15,KKREKQKEQMEQMKQRIAEENIMK,4.81
16,KKREKQTEQMEQMKQRIAEENIMK,4.84
17,KKREKQNEQMEQMKQRIAEENIMK,4.93
18,KKREKQFEQMEQMKQRIAEENIMK,4.52
19,KKREKQYEQMEQMKQRIAEENIMK,4.76
20,KKREKQMEQMEQMKQRIAEENIMK,4.52
21,KKREKQVEQMEQMKQRIAEENIMK,4.98
22,KKREKQWEQMEQMKQRIAEENIMK,4.13
